Patent US20170355766A1 (Xencor, published 2017)
Changes are numbered by the printed parent chain. Numbers in names are those of the source.

T1: human FcγRIIb receptor protein (R&D Systems) (human, UniProt P31994 46-217)
T1 construct: Analyte injected over antibodies captured on a protein A/G chip (Biacore); also called CD32b
T1 sequence (looked up): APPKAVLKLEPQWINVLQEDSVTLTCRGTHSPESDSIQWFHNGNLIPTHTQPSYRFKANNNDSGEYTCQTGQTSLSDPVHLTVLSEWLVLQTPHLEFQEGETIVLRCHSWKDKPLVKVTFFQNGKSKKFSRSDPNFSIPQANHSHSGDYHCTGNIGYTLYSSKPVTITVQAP

T2: FcγRIIaR (human, UniProt P12318)
T2 construct: recombinant receptor protein with 6xHis and GST tags; also called R131 FcγRIIa
T2 sequence (receptor, looked up): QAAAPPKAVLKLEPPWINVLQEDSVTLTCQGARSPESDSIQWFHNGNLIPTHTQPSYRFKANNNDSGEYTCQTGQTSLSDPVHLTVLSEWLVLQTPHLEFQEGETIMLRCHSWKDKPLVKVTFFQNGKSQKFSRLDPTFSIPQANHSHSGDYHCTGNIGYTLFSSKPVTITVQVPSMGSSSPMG

B1: D265E (antibody, human IgG1, kappa)
heavy: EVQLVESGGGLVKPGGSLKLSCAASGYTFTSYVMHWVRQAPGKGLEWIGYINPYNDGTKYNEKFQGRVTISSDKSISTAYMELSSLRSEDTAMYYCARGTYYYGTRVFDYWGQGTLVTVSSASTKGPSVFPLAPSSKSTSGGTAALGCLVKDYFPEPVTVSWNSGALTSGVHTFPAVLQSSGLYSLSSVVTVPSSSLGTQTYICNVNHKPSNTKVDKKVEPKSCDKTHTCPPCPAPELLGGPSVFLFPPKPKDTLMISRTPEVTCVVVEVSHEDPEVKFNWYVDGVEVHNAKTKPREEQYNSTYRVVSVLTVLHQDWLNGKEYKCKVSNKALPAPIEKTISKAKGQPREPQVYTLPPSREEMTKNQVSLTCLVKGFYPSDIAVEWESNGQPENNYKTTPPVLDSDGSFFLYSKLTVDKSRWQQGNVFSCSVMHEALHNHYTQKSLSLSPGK
light: DIVMTQSPATLSLSPGERATLSCRSSKSLQNVNGNTYLYWFQQKPGQSPQLLIYRMSNLNSGVPDRFSGSGSGTEFTLTISSLEPEDFAVYYCMQHLEYPITFGAGTKLEIKRTVAAPSVFIFPPSDEQLKSGTASVVCLLNNFYPREAKVQWKVDNALQSGNSQESVTEQDSKDSTYSLSSTLTLSKADYEKHKVYACEVTHQGLSSPVTKSFNRGEC
notes: HuAM4G7 IgG1 Fc variant
B2: G237Y (antibody, human IgG1, kappa)
heavy: not shown
light: B1 light
notes: HuAM4G7 IgG1 Fc variant
B3: G236Q (antibody, human IgG1, kappa)
heavy: not shown
light: B1 light
notes: HuAM4G7 IgG1 Fc variant
B4: L234I (antibody, human IgG1, kappa)
heavy: not shown
light: B1 light
notes: HuAM4G7 IgG1 Fc variant
B5: L235R (antibody, human IgG1, kappa)
heavy: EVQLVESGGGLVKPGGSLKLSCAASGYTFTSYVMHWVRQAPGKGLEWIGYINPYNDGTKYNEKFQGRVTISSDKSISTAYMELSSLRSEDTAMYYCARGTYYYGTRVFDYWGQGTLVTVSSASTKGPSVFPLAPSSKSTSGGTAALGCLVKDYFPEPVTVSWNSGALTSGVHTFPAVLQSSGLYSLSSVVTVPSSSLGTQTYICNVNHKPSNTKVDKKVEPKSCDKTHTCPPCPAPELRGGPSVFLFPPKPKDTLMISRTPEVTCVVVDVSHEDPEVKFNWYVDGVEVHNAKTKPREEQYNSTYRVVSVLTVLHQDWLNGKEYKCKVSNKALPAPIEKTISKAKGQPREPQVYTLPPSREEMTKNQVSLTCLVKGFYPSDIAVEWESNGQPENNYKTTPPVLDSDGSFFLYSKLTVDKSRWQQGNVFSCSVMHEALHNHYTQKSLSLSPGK
light: B1 light
notes: HuAM4G7 IgG1 Fc variant
B6: L234S (antibody, human IgG1, kappa)
heavy: not shown
light: B1 light
notes: HuAM4G7 IgG1 Fc variant
B7: G237V (antibody, human IgG1, kappa)
heavy: not shown
light: B1 light
notes: HuAM4G7 IgG1 Fc variant
B8: L234P (antibody, human IgG1, kappa)
heavy: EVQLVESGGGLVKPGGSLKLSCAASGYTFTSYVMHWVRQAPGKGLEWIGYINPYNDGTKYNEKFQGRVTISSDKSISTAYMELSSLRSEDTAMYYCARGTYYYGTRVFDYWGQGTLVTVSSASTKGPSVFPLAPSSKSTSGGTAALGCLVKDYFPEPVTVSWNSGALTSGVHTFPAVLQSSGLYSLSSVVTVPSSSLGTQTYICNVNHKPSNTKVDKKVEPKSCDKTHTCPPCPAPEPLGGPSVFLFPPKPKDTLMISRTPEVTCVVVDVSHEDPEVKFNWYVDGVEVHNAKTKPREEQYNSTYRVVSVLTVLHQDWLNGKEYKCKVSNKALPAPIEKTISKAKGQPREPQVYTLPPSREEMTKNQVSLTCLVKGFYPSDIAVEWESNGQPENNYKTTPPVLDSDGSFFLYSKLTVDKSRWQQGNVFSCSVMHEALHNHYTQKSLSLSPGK
light: B1 light
notes: HuAM4G7 IgG1 Fc variant
B9: L234G (antibody, human IgG1, kappa)
heavy: not shown
light: B1 light
notes: HuAM4G7 IgG1 Fc variant
B10: L234W/G236D/S239E/S267E (antibody, human IgG1, kappa)
heavy: EVQLVESGGGLVKPGGSLKLSCAASGYTFTSYVMHWVRQAPGKGLEWIGYINPYNDGTKYNEKFQGRVTISSDKSISTAYMELSSLRSEDTAMYYCARGTYYYGTRVFDYWGQGTLVTVSSASTKGPSVFPLAPSSKSTSGGTAALGCLVKDYFPEPVTVSWNSGALTSGVHTFPAVLQSSGLYSLSSVVTVPSSSLGTQTYICNVNHKPSNTKVDKKVEPKSCDKTHTCPPCPAPEWLDGPEVFLFPPKPKDTLMISRTPEVTCVVVDVEHEDPEVKFNWYVDGVEVHNAKTKPREEQYNSTYRVVSVLTVLHQDWLNGKEYKCKVSNKALPAPIEKTISKAKGQPREPQVYTLPPSREEMTKNQVSLTCLVKGFYPSDIAVEWESNGQPENNYKTTPPVLDSDGSFFLYSKLTVDKSRWQQGNVFSCSVMHEALHNHYTQKSLSLSPGK
light: B1 light
notes: HuAM4G7 IgG1 Fc variant
B11: G236W (antibody, human IgG1, kappa)
heavy: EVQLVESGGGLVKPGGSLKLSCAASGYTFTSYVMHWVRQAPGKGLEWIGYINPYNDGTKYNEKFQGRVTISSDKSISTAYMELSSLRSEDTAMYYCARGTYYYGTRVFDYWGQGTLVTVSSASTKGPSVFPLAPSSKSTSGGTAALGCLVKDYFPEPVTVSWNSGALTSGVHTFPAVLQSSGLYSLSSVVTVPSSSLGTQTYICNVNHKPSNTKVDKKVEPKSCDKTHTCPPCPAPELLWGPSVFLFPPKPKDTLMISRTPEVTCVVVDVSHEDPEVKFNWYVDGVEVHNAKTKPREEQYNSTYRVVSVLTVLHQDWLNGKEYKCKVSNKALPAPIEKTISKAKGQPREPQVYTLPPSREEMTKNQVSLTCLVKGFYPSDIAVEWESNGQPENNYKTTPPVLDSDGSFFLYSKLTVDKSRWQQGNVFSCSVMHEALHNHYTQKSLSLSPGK
light: B1 light
notes: HuAM4G7 IgG1 Fc variant
B12: L234W/S239E/S267E (antibody, human IgG1, kappa)
heavy: B10 heavy with D240G
light: B1 light
notes: HuAM4G7 IgG1 Fc variant
B13: L234D/G236N/S267E (antibody, human IgG1, kappa)
heavy: B10 heavy with W238D, D240N, E243S
light: B1 light
notes: HuAM4G7 IgG1 Fc variant
B14: G236E/S267E (antibody, human IgG1, kappa)
heavy: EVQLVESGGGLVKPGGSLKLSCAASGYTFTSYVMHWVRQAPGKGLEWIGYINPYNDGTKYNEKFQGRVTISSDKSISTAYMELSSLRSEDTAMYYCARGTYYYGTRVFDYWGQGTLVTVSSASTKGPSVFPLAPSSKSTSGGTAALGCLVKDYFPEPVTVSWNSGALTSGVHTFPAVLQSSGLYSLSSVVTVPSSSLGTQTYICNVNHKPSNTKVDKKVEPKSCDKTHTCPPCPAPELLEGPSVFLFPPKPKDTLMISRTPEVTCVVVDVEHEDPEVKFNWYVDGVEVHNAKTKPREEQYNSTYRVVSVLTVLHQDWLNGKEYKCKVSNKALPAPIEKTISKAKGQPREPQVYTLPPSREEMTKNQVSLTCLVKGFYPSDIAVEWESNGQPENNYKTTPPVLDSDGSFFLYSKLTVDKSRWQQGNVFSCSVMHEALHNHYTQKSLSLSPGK
light: B1 light
notes: HuAM4G7 IgG1 Fc variant
B15: G237Q (antibody, human IgG1, kappa)
heavy: not shown
light: B1 light
notes: HuAM4G7 IgG1 Fc variant
B16: H268N (antibody, human IgG1, kappa)
heavy: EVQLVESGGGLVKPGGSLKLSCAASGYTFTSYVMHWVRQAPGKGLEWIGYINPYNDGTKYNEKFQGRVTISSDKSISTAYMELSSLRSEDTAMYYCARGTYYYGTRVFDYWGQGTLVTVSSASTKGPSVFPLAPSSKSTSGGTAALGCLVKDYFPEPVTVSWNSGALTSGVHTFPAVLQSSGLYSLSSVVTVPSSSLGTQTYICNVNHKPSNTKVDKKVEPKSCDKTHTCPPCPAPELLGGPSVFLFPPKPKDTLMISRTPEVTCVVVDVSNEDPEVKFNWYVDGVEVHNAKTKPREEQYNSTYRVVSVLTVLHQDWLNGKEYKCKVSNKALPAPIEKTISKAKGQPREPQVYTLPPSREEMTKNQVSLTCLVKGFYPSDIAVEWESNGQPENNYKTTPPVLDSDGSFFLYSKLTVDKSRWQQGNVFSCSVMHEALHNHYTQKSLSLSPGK
light: B1 light
notes: HuAM4G7 IgG1 Fc variant
B17: G236P (antibody, human IgG1, kappa)
heavy: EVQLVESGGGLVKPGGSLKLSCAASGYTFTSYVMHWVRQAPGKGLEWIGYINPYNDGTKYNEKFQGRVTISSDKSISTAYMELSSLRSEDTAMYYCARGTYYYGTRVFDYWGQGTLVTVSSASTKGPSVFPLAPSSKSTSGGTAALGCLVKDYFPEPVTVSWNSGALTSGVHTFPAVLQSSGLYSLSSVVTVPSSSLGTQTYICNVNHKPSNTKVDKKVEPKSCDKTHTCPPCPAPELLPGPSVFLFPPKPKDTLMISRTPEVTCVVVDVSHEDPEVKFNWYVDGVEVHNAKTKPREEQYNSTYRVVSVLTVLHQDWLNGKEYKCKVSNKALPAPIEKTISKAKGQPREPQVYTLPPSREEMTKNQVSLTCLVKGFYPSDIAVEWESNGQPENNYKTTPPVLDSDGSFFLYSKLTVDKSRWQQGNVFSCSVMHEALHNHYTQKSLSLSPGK
light: B1 light
notes: HuAM4G7 IgG1 Fc variant
B18: G237S (antibody, human IgG1, kappa)
heavy: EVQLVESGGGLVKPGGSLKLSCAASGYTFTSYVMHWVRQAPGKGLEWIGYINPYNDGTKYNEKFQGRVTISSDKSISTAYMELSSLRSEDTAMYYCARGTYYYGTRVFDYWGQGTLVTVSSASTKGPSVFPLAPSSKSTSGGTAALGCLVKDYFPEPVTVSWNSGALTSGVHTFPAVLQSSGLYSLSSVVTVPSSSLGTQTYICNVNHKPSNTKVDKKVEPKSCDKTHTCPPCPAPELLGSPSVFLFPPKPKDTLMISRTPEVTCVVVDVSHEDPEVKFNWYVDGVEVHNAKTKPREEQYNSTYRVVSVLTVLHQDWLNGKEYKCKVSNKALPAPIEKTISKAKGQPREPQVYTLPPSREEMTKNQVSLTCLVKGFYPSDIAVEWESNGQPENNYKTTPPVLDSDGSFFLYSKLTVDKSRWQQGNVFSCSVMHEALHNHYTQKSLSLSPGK
light: B1 light
notes: HuAM4G7 IgG1 Fc variant
B19: L234V (antibody, human IgG1, kappa)
heavy: not shown
light: B1 light
notes: HuAM4G7 IgG1 Fc variant
B20: G236H (antibody, human IgG1, kappa)
heavy: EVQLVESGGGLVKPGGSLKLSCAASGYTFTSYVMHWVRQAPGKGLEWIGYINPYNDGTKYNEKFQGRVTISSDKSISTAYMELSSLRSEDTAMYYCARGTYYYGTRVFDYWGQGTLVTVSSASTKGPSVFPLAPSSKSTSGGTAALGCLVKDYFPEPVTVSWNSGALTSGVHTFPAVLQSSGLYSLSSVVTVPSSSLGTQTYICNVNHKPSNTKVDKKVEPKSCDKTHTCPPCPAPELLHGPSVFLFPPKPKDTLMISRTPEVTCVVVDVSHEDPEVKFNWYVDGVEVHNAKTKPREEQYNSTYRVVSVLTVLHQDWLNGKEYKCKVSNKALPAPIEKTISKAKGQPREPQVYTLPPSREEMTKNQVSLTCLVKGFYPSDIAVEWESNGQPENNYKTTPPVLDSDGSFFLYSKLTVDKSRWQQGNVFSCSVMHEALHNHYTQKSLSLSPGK
light: B1 light
notes: HuAM4G7 IgG1 Fc variant
B21: L235E (antibody, human IgG1, kappa)
heavy: not shown
light: B1 light
notes: HuAM4G7 IgG1 Fc variant
B22: G236M (antibody, human IgG1, kappa)
heavy: not shown
light: B1 light
notes: HuAM4G7 IgG1 Fc variant
B23: L234Y (antibody, human IgG1, kappa)
heavy: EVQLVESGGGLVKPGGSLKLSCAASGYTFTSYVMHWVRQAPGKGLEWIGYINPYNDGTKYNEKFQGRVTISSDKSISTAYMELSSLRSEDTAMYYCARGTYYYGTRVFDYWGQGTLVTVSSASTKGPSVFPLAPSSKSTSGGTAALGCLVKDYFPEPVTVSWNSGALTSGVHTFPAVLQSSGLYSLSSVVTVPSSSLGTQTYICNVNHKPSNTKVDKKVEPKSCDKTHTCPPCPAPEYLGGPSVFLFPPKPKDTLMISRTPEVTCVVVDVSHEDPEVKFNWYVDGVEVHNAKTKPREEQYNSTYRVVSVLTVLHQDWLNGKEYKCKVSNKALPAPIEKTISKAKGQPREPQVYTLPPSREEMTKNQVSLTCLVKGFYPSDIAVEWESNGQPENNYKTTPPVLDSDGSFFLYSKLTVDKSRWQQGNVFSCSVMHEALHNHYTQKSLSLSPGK
light: B1 light
notes: HuAM4G7 IgG1 Fc variant
B24: L234Q (antibody, human IgG1, kappa)
heavy: not shown
light: B1 light
notes: HuAM4G7 IgG1 Fc variant
B25: L235H (antibody, human IgG1, kappa)
heavy: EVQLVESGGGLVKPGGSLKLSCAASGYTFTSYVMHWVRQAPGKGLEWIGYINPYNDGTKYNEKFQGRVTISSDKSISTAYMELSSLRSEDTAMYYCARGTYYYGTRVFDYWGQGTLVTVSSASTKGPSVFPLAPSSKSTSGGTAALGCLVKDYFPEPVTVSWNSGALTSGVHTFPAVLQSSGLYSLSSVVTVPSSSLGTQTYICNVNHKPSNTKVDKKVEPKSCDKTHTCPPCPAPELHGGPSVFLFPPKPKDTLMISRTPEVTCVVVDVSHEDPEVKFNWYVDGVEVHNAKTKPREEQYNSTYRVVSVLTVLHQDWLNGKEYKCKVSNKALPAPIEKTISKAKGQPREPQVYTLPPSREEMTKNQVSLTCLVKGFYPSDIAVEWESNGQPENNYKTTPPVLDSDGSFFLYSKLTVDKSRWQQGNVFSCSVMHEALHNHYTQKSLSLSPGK
light: B1 light
notes: HuAM4G7 IgG1 Fc variant
B26: L235T/S267E (antibody, human IgG1, kappa)
heavy: not shown
light: B1 light
notes: HuAM4G7 IgG1 Fc variant

Tests used:
[1] = target: T1, human FcγRIIb receptor protein (R&D …); test: SPR (Biacore)
FcγRIIaR = target: T2, FcγRIIaR; test: SPR (Biacore)

Row | Binder | Fold FcγRIIb [1] | Fold FcγRIIaR (FcγRIIaR) | binding result [1]
1 | B1 | 0.417 fold | 0.307 fold | –
2 | B2 | 0.33 fold | 0.902 fold | –
3 | B3 | 0.147 fold | 0.0859 fold | –
4 | B4 | 0.108 fold | 0.0554 fold | –
5 | B5 | 5.58 fold | 1.02 fold | –
6 | B6 | 0.192 fold | 0.693 fold | –
7 | B7 | 0.147 fold | 0.0342 fold | –
8 | B8 | 0.0644 fold | 0.0141 fold | –
9 | B9 | 0.147 fold | 0.0859 fold | –
10 | B10 | 11.4 fold | 5.69 fold | –
11 | B11 | 0.147 fold | 0.0859 fold | –
12 | B12 | 42.3 fold | 98.5 fold | –
13 | B13 | 5.11 fold | 0.728 fold | –
14 | B14 | 11.4 fold | 36.5 fold | –
15 | B15 | 0.147 fold | 0.0859 fold | –
16 | B16 | 1.17 fold | 1.79 fold | –
17 | B17 | 0.147 fold | 0.0859 fold | –
18 | B18 | 0.147 fold | 0.081 fold | –
19 | B19 | 0.456 fold | 0.134 fold | –
20 | B20 | – | 0.135 fold | no binding
21 | B21 | 0.55 fold | 0.333 fold | –
22 | B22 | 0.147 fold | 0.0859 fold | –
23 | B23 | 0.0237 fold | 0.0511 fold | –
24 | B24 | 0.147 fold | 0.0372 fold | –
25 | B25 | 0.734 fold | 0.756 fold | –
26 | B26 | 2.37 fold | 3.06 fold | –
